In the supplement of paper PMC10567573:

B1: WSB1 (parent)
chain: FSHDGLHVASLADDKMVRFWRIDE

Variants of: B1
Experiment: protein stability index of a GFP-peptide fusion (GPS, HEK-293T) (PSI 1-6); higher = more stable
Conditions: c terminus: a fixed tail appended
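Further: lentivirally expressed fusions sorted by FACS into six bins by GFP to DsRed ratio, PSI derived from sequencing read proportions per bin multiplied by bin number.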

| Variant | protein stability index |
| --- | --- |
| FSHDKLHVASLADDKMVRFWRIDE [G5K] | 1.96 |
| FSHDYLHVASLADDKMVRFWRIDE [G5Y] | 1.27 |
| FSHDELHVASLADDKMVRFWRIDE [G5E] | 2.67 |
| FSHDTLHVASLADDKMVRFWRIDE [G5T] | 2.27 |
| FSHDPLHVASLADDKMVRFWRIDE [G5P] | 1.81 |
| FSHDRLHVASLADDKMVRFWRIDE [G5R] | 2.07 |
| FSHDNLHVASLADDKMVRFWRIDE [G5N] | 3.01 |
| FSHDVLHVASLADDKMVRFWRIDE [G5V] | 2.61 |
| FSHDLLHVASLADDKMVRFWRIDE [G5L] | 1.74 |
| FSHDCLHVASLADDKMVRFWRIDE [G5C] | 1.34 |
| FSHDMLHVASLADDKMVRFWRIDE [G5M] | 3.4 |
| FSHDILHVASLADDKMVRFWRIDE [G5I] | 1.89 |
| FSHDQLHVASLADDKMVRFWRIDE [G5Q] | 2.15 |
| FSHDALHVASLADDKMVRFWRIDE [G5A] | 1.92 |
| FSHDDLHVASLADDKMVRFWRIDE [G5D] | 3.16 |
| FSHDGLHKASLADDKMVRFWRIDE [V8K] | 1.1 |
| FSHDGLHMASLADDKMVRFWRIDE [V8M] | 1.03 |
| FSHDGLHWASLADDKMVRFWRIDE [V8W] | 2.92 |
| FSHDGLHQASLADDKMVRFWRIDE [V8Q] | 3.68 |
| FSHDGLHTASLADDKMVRFWRIDE [V8T] | 1.86 |
| FSHDGLHDASLADDKMVRFWRIDE [V8D] | 1.88 |
| FSHDGLHAASLADDKMVRFWRIDE [V8A] | 1.94 |
| FSHDGLHNASLADDKMVRFWRIDE [V8N] | 1.68 |
| FSHDGLHIASLADDKMVRFWRIDE [V8I] | 1.92 |

| Variant | protein stability index |
| --- | --- |
| FSHDGLHGASLADDKMVRFWRIDE [V8G] | 1.75 |
| FSHDGLHRASLADDKMVRFWRIDE [V8R] | 1.84 |
| FSHDGLHEASLADDKMVRFWRIDE [V8E] | 2.59 |
| FSHDGLHSASLADDKMVRFWRIDE [V8S] | 2.41 |
| FSHDGLHHASLADDKMVRFWRIDE [V8H] | 1.83 |
| FSHDGLHCASLADDKMVRFWRIDE [V8C] | 1.38 |
| FSHDGLHLASLADDKMVRFWRIDE [V8L] | 1.53 |
| FSHDGLRVASLADDKMVRFWRIDE [H7R] | 3.03 |
| FSHDGLCVASLADDKMVRFWRIDE [H7C] | 1.86 |
| FSHDGLDVASLADDKMVRFWRIDE [H7D] | 3.61 |
| FSHDGLEVASLADDKMVRFWRIDE [H7E] | 1.84 |
| FSHDGLNVASLADDKMVRFWRIDE [H7N] | 1.68 |
| FSHDGLFVASLADDKMVRFWRIDE [H7F] | 2.87 |
| FSHDGLAVASLADDKMVRFWRIDE [H7A] | 1.58 |
| FSHDGLVVASLADDKMVRFWRIDE [H7V] | 2.42 |
| FSHDGLTVASLADDKMVRFWRIDE [H7T] | 1.65 |
| FSHDGLQVASLADDKMVRFWRIDE [H7Q] | 1.08 |
| FSHDGLLVASLADDKMVRFWRIDE [H7L] | 1 |
| FSHDGLGVASLADDKMVRFWRIDE [H7G] | 1.4 |
| FSHDGLKVASLADDKMVRFWRIDE [H7K] | 1.17 |
| FSHDGLIVASLADDKMVRFWRIDE [H7I] | 2.17 |
| FSHDGLMVASLADDKMVRFWRIDE [H7M] | 1.03 |
| FSHDGLPVASLADDKMVRFWRIDE [H7P] | 2.09 |
| FSHCGLHVASLADDKMVRFWRIDE [D4C] | 1.73 |

| Variant | protein stability index |
| --- | --- |
| FSHNGLHVASLADDKMVRFWRIDE [D4N] | 2 |
| FSHPGLHVASLADDKMVRFWRIDE [D4P] | 2 |
| FSHKGLHVASLADDKMVRFWRIDE [D4K] | 1.8 |
| FSHYGLHVASLADDKMVRFWRIDE [D4Y] | 1.65 |
| FSHLGLHVASLADDKMVRFWRIDE [D4L] | 1.53 |
| FSHHGLHVASLADDKMVRFWRIDE [D4H] | 1.43 |
| FSHEGLHVASLADDKMVRFWRIDE [D4E] | 1.94 |
| FSHTGLHVASLADDKMVRFWRIDE [D4T] | 2.1 |
| FSHDGLHVPSLADDKMVRFWRIDE [A9P] | 1.76 |
| FSHDGLHVESLADDKMVRFWRIDE [A9E] | 2.01 |
| FSHDGLHVNSLADDKMVRFWRIDE [A9N] | 2.09 |
| FSHDGLHVLSLADDKMVRFWRIDE [A9L] | 2.62 |
| FSHDGLHVHSLADDKMVRFWRIDE [A9H] | 1.7 |
| FSHDGLHVMSLADDKMVRFWRIDE [A9M] | 1.79 |
| FSHDGLHVKSLADDKMVRFWRIDE [A9K] | 1.67 |
| FSHDGLHVCSLADDKMVRFWRIDE [A9C] | 2.51 |
| FSHDGLHVDSLADDKMVRFWRIDE [A9D] | 1.71 |
| FSHDGLHVISLADDKMVRFWRIDE [A9I] | 2.66 |
| FSHDGLHVFSLADDKMVRFWRIDE [A9F] | 5.19 |
| FSHDGRHVASLADDKMVRFWRIDE [L6R] | 1.92 |
| FSHDGQHVASLADDKMVRFWRIDE [L6Q] | 2.33 |
| FSHDGFHVASLADDKMVRFWRIDE [L6F] | 2.43 |
| FSHDGCHVASLADDKMVRFWRIDE [L6C] | 1.55 |
| FSHDGTHVASLADDKMVRFWRIDE [L6T] | 1.67 |

| Variant | protein stability index |
| --- | --- |
| FSHDGIHVASLADDKMVRFWRIDE [L6I] | 2.15 |
| FSHDGMHVASLADDKMVRFWRIDE [L6M] | 2.41 |
| FSHDGKHVASLADDKMVRFWRIDE [L6K] | 1.65 |
| FSHDGNHVASLADDKMVRFWRIDE [L6N] | 3.26 |
| FSHDGDHVASLADDKMVRFWRIDE [L6D] | 2.07 |
| FSHDGHHVASLADDKMVRFWRIDE [L6H] | 2.27 |
| FSHDGPHVASLADDKMVRFWRIDE [L6P] | 1.63 |
| FSHDGAHVASLADDKMVRFWRIDE [L6A] | 1.98 |
| FSWDGLHVASLADDKMVRFWRIDE [H3W] | 1.62 |
| FSVDGLHVASLADDKMVRFWRIDE [H3V] | 1.11 |
| FSMDGLHVASLADDKMVRFWRIDE [H3M] | 1.79 |
| FSTDGLHVASLADDKMVRFWRIDE [H3T] | 1.89 |
| FSPDGLHVASLADDKMVRFWRIDE [H3P] | 1.67 |
| FSQDGLHVASLADDKMVRFWRIDE [H3Q] | 2.03 |
| FSKDGLHVASLADDKMVRFWRIDE [H3K] | 2.08 |
| FSGDGLHVASLADDKMVRFWRIDE [H3G] | 2.95 |
| FSNDGLHVASLADDKMVRFWRIDE [H3N] | 1.92 |
| FSDDGLHVASLADDKMVRFWRIDE [H3D] | 2.2 |
| FSYDGLHVASLADDKMVRFWRIDE [H3Y] | 1.19 |
| FSSDGLHVASLADDKMVRFWRIDE [H3S] | 3.07 |
| FSLDGLHVASLADDKMVRFWRIDE [H3L] | 1.37 |
| FSEDGLHVASLADDKMVRFWRIDE [H3E] | 1.71 |
